# In patent publication US20240376190A1 (Chugai, published 2024):
# How the values were obtained:
# [1] = target: T1, mouse cell surface latent TGF-beta 1 expressed on Ba/F3 cells (mouse, UniProt P04202 30-390); assay: flow cytometry (FACS) on BaF3 cells, PE anti-human IgG secondary
# T1 construct: whole, on cells; also called mouse latent TGF-beta 1
# Method: (§1) The anti-latent TGF-beta 1 antibodies (10 microgram/mL each) were incubated with each cell line for 30 minutes at 4 degree C. and washed with FACS buffer (2% PBS, 2 mM EDTA in PBS). […] Data acquisition was performed on an FACS Verse (Becton Dickinson), followed by analysis and calculation of Mean Fluorescence Intensity (MFI), using FlowJo (trademark) software (Tree Star) and GraphPad Prism software (GraphPad).
# [2] = target: T2, human cell surface latent TGF-beta 1 expressed on FreeStyle 293-F cells (human, UniProt P01137 30-390); assay: flow cytometry (FACS) on FreeStyle 293-F cells, PE anti-human IgG secondary
# T2 construct: whole, on cells; also called human latent TGF-beta 1
# Method: as §1
# T1 sequence (P04202 30-390): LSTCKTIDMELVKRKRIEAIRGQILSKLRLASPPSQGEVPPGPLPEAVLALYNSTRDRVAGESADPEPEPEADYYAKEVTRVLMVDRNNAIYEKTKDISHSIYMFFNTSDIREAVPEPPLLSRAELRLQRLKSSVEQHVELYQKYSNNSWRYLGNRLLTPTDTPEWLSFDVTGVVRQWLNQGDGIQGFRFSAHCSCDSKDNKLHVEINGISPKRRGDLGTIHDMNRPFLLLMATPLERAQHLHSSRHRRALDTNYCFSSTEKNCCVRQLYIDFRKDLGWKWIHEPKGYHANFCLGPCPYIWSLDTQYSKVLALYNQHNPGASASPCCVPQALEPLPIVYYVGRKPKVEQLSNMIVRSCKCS
binder,measurement,setting,value
"Anti-KLH antibody IC17dK-SG181 (antibody, human IgG1, kappa, V domains shown, Anti-KLH antibody with a human IgG1 Fc region, used as negative control; also called negative control antibody) VH: QVQLQQSGPQLVRPGASVKISCKASGYSFTSYWMHWVNQRPGQGLEWIGMIDPSYSETRLNQKFKDKATLTVDKSSSTAYMQLSSPTSEDSAVYYCALYGNYFDYWGQGTTLTVSS VL: DIQMTQSSSSFSVSLGDRVTITCKASEDIYNRLAWYQQKPGNAPRLLISGATSLETGVPSRFSGSGSGKDYTLSITSLQTEDVATYYCQQYWSTPYTFGGGTKLEVKR",binding result,[1],no binding (tested: 10 microgram/mL)
same,binding result,[2],no binding (tested: 10 microgram/mL)
